Patent US20200277400A1
Blank lines part the entries; values can stand above or below the substance they belong to.

Tests used:
meHER2(Hc-Lc):28ζ CAR [1] = experiment: flow cytometry, T cells pre-bound to meditope peptide, then protein L; untransduced control 7.23%
meHER2(Lc-Hc):28ζ CAR [2] = experiment: as above
meHER2(Hc-Lc):28ζ CAR [3] = experiment: flow cytometry, T cells pre-bound to meditope peptide, then protein L; untransduced control 0.63%
meHER2(Lc-Hc):28ζ CAR [4] = experiment: as above
meHER2(Hc-Lc):28ζ CAR [5] = experiment: flow cytometry, protein L staining of lentivirally transduced primary human T cells; untransduced control 13.16%
[6] = target: Fab (meditope-binding Fab, not further named); experiment: method not stated
meHER2(Hc-Lc):28ζ CAR [7] = experiment: flow cytometry, meditope-AF647 staining of lentivirally transduced primary human T cells; untransduced control 1.83%
meHER2(Lc-Hc):28ζ CAR [8] = experiment: as above
meHER2(Hc-Lc):28ζ CAR [9] = experiment: flow cytometry, T cells pre-bound to meditope peptide, then protein L; untransduced control 0.50%
meHER2(Lc-Hc):28ζ CAR [10] = experiment: as above

Chain of meHER2(Lc-Hc):28ζ CAR (heavy, as listed by the source limits assumed, chain 1 of 2): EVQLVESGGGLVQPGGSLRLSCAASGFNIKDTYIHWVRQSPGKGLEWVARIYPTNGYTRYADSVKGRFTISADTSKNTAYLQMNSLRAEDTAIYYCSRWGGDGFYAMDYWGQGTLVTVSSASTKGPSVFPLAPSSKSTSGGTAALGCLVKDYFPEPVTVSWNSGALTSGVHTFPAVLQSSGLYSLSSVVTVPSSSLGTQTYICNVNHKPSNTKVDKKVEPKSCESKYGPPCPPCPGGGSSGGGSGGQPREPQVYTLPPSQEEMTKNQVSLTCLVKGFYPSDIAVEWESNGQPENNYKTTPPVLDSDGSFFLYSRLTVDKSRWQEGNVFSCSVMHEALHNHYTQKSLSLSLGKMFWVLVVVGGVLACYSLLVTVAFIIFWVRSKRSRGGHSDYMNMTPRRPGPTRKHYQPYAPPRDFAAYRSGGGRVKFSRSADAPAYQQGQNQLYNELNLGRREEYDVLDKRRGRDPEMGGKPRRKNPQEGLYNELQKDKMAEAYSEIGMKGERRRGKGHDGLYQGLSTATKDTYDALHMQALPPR
Chain of meHER2(Lc-Hc):28ζ CAR (light, as listed by the source limits assumed, chain 2 of 2): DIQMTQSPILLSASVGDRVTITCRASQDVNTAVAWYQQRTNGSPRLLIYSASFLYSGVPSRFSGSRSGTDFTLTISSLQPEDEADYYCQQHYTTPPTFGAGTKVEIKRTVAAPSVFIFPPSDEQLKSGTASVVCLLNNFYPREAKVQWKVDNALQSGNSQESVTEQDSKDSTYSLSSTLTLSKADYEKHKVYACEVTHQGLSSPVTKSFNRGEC
Chain of meHER2(Hc-Lc):28ζ CAR (heavy, as listed by the source limits assumed, chain 1 of 2): as the sequence (heavy, as listed by the source limits assumed, chain 1 of 2) above
Chain of meHER2(Hc-Lc):28ζ CAR (light, as listed by the source limits assumed, chain 2 of 2): as the sequence (light, as listed by the source limits assumed, chain 2 of 2) above

- % of cells Meditope- Protein L+ (lower right quadrant) (meHER2(Hc-Lc):28ζ CAR [1]): 4.04%
- % of cells Meditope- Protein L+ (lower right quadrant) (meHER2(Lc-Hc):28ζ CAR [2]): 16.1%
- % of cells Meditope+ Protein L+ (upper right quadrant) (meHER2(Hc-Lc):28ζ CAR [3]): 42.1%
- % of cells Meditope+ Protein L+ (upper right quadrant) (meHER2(Lc-Hc):28ζ CAR [4]): 43.1%
- % of cells in the positive gate (meHER2(Hc-Lc):28ζ CAR [5]): 51.8%
Substance: protein L

- estimated half-life of the complex [6]: > 80 days
Substance: meditope-protein L fusion (MPL)

- % of cells in the positive gate (meHER2(Hc-Lc):28ζ CAR [7]): 54.4%
- % of cells in the positive gate (meHER2(Lc-Hc):28ζ CAR [8]): 57.1%
- % of cells Meditope+ Protein L- (upper left quadrant) (meHER2(Hc-Lc):28ζ CAR [9]): 2.6%
- % of cells Meditope+ Protein L- (upper left quadrant) (meHER2(Lc-Hc):28ζ CAR [10]): 2.09%
Substance: meditope-AF647 (peptide)
